Experiment [1] has as its target T1, human PD-L2 protein (purchased from AcroBiosystems) (human, UniProt Q9BQ51 20-219, limits assumed, biotinylated in the blocking assays).
T1 construct: Bought soluble protein; also called PD-L2 antigen; biotinylated human PD-L2 protein
T1 sequence (looked up): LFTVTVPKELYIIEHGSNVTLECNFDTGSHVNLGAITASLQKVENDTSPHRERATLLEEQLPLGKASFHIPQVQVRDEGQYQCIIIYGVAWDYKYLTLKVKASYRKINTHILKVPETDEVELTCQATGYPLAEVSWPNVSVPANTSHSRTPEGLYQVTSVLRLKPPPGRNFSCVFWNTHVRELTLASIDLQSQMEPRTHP
The experiment can be described thus: BLI (ForteBio), antibody on AHQ sensor, 100 nM PD-L2 antigen, 1:1 model. As for the experimental part: (§1) ForteBio affinity determination was carried out according to existing methods (Estep, P et al., High throughput solution-based measurement of antibody-antigen affinity and epitope binning. MAbs, 2013.5(2): p. 270-8). In short, the sensor was equilibrated for 30 min under the line of the analysis buffer, and then the baseline was established after online detection for 60 s. The purified antibody obtained as described above was loaded onto the AhQ sensor online. […] Kinetic analysis was performed using a 1:1 binding model.
For orientation: Biolayer interferometry detects binding as a change in optical thickness at a sensor tip.

Experiment [2] deals with T2, human PD-L2 on CHO cells (CHO-hPD-L2 cells) (human, UniProt Q9BQ51 20-273).
T2 construct: whole, on cells; also called CHO-K1-PD-L1/PD-L2
T2 sequence (looked up): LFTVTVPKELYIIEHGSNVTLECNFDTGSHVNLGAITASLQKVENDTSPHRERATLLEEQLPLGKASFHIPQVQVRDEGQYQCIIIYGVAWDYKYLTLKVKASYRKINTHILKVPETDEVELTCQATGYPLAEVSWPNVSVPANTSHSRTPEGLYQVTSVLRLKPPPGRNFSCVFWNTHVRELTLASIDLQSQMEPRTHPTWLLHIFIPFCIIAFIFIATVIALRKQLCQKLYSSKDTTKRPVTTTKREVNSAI
As to the kind of experiment: flow cytometry on CHO-hPD-L2 cells, PE anti-human IgG-Fc, median fluorescence intensity (MFI). How it is done:
The expanded CHO-hPD-L2 cells were adjusted to a cell density of 2×10⁶ cells/ml, and were added to 96-well flow plate at 100 μl/well, and centrifuged for later use. […] The diluted samples were added to the 96-well flow plate with cells at 100 μl/well, incubated at 4° C. for 30 min, and washed twice with PBS. Goat F(ab')2 anti-human IgG-Fc (PE) (purchased from Abcam) diluted 100 times with PBS was added at 100 μl/well, incubated at 4° C. for 30 min, and washed twice with PBS. PBS was added at 100 μl/well to resuspend cells, and detection was performed on a CytoFlex (Bechman) flow cytometer and the corresponding MFI was calculated.
On the technique in general: Flow cytometry measures light scatter and fluorescence of single cells or particles in a stream.

Experiment [3] has as its target T1, human PD-L2 protein (purchased from …). The experiment can be described thus: flow cytometry blocking assay: antibody pre-incubated with biotinylated human PD-L2 protein (1 ug/ml), binding of PD-L2 to CHO-hPD-1 cells read as MFI. As for the experimental part: CHO cells overexpressing human PD-1 (CHO-hPD-1 cells) were generated by transfection of the pCHO1.0 vector (purchased from Invitrogen™) cloning human PD-1 cDNA (purchased from Sino Biological). The expanded CHO-hPD-1 cells were adjusted to a cell density of 2×10⁶ cells/ml, and were added to 96-well flow plate at 100 μl/well, and centrifuged for later use. The purified mutant sample was diluted with PBS and diluted 3 times from […] for 12 points. […] The co-incubation sample was added to the above-mentioned 96-well flow plate with cells 100 μl/well, incubated at 4° C. for 30 min, and washed twice with PBS. APC goat anti-mouse IgG (minimum×reactive) antibody diluted 100 times with PBS (purchased from Biolegend®) was added at 100 μl/well, incubated at 4° C. for 30 min, and washed twice with PBS. PBS was added at 100 μl/well to resuspend cells, and detection was performed on a CytoFlex (Bechman) flow cytometer and the corresponding MFI was calculated.

Experiment [4] addresses T3, human PD-L1 protein (purchased from AcroBiosystems) (human, UniProt Q9NZQ7 19-238, biotinylated in the blocking assay).
T3 construct: Bought soluble protein; also called PD-L1 antigen; biotinylated human PD-L1 protein
The experiment can be described thus: BLI (ForteBio), antibody on AHQ sensor, 100 nM PD-L1 antigen, 1:1 model. How it is done:
as §1

Experiment [5] has as its target T1, human PD-L2 protein (purchased from …). The experiment can be described thus: BLI (ForteBio), antibody on AHQ sensor, 100 nM PD-L2 antigen, 1:1 model. As for the experimental part:
as §1
The experimental method was the same as that in Example 1.5.
This is another data set of the same source.

The values that follow come from patent publication US12600782 (BIOTHEUS, dated 2026).

As usually defined, the Kd is the free concentration of one partner at which half of the binding sites on the other are occupied at equilibrium, for simple one-to-one binding. Low values mean higher affinity, high ones lower affinity. One may read the koff as the first-order rate constant of dissociation. The term kon denotes the rate constant with which the complex forms. Low readings indicate slower complex formation, high ones faster complex formation. Broadly, the EC50 (read off the curve) is the concentration that produces a half-maximal response. Low readings indicate an effect from little substance, high ones a need for much substance.

Read-outs that look alike come from different tables or passages of the source.

T3 sequence (Q9NZQ7 19-238 limits assumed): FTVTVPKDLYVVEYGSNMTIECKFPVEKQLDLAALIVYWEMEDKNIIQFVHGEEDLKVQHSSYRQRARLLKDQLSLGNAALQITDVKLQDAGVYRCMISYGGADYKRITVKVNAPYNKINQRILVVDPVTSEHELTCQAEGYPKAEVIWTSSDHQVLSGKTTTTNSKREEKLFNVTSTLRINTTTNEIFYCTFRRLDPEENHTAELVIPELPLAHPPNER

B1: D-Na-80 (antibody, V domains shown)
VH: EVQLVESGGGLVQAGGSLRLSCAVSGVSFINYAMGWFRQAPGKEREFVAAISRFGGTTSYADSVKDRFSITTDTKDTVYLQTNSLKPEDTAVYYCAANSRILSRTAKDYDYWGQGTQVTVSS
notes: Anti-PD-L2 heavy chain antibody: VHH linked to human IgG1 (LALA) Fc; the junction is not described
Take B1: in experiment [1], the affinity, expressed as Kd, was 3.4 nM; the koff is 0.000433 s⁻¹; the kon amounted to 127000 M⁻¹ s⁻¹.

B2: D-Na-78 (antibody, V domains shown)
VH: QVQLVESGGGLVQAGGSLRLSCEASGVISINYAMAWFRQAPGKEREFVAAISRFGVTTSYADSVKDRFSIGITRDNAKDTMYLQTKSLKPEDTAVYYCAANSRILSRTAKDYDYWGQGTQVTVSS
notes: as for B1
Turning to B2, in experiment [1], the Kd was determined as 5.95 nM, the koff was found to be 0.000345 s⁻¹ and the kon was 58100 M⁻¹ s⁻¹.

B3: D-Ye-31 (antibody, V domains shown)
VH: QVQLQESGGGLVQAGGSLGLSCAASGRTFSSMTIGWFRQTPGKEREFVAGIGWSTSKTVYKDSVKGRFTISTDNAKKTVYLQMNNLKPEDTAVYYCAADSMNRGQFDYWGQGTQVTVSS
notes: as for B1
Take B3: in experiment [1], binding was characterised by a dissociation constant (Kd) of 5.04 nM, the koff is 0.000644 s⁻¹ and the kon is 128000 M⁻¹ s⁻¹.

B4: D-Na-64 (antibody, V domains shown)
VH: EVQLVESGGGLVQPGGSLRLSCAASGRTFSSMTIGWFRQTPGKEREFVAGIGWSTSKTVYKDSVKGRFTISTDNAKKTVYLQMNNLKPEDTAVYYCAADSMNRGQFDYWGQGTQVTVSS
notes: as for B1
Consider B4, for which, in experiment [1], the affinity, expressed as Kd, was 0.566 nM; the koff came to 0.000369 s⁻¹; the kon was found to be 652000 M⁻¹ s⁻¹. Further, the “EC50 (read off the curve)” value in experiment [2] was ~60 nM. In experiment [3], the “IC50 (read off the curve)” value is ~10 nM.

B5: D-Ye-10 (antibody, V domains shown)
VH: QVQLQESGGGLVQAGASLRLSCASSGRTFSSMTIGWFRQTPGKEREFVAGIGWSTSKTVYKDSVKGRFTISTDNAKKTVYLQMNNLKPEDTAVYYCAEDSMNRGQFDYWGQGTQVTVSS
notes: as for B1
In experiment [1], B5 returned a Kd of 5.22 nM, a koff of 0.00106 s⁻¹ and a kon of 203000 M⁻¹ s⁻¹. Further, in experiment [2], the “EC50 (read off the curve)” value is ~50 nM. In experiment [3], the “IC50 (read off the curve)” value is ~4 nM.

B6: D-Na-87 (antibody, V domains shown)
VH: QVQLVESGGGLVQPGGSLRLSCAASGFAFDAYAMTWVRQAPGKGLEFLSRIYSHGSKIIYAGSVKGRFTIFRDNAKNTVYLQMNSLKPEDTAVYYCAAGPDNIPTTGEKYDFWGQGTQVTVSS
notes: as for B1
In experiment [1], B6 had a Kd of 0.655 nM, a koff of 0.000288 s⁻¹ and a kon of 440000 M⁻¹ s⁻¹. For the same molecule, in experiment [3], the “IC50 (read off the curve)” value was ~30 nM.

B7: D-Na-89 (antibody, V domains shown)
VH: QVQLVESGGGLVQAGGSLRLSCAASGLTFINYAMGWFRQAPGKEREFVAAISWAGGTTSYADSVKDRFSITRDSAKDTVYLQTNSLKPEDTAVYYCAANSRILSRTAKDYDYWGQGTEVTVSS
notes: as for B1
In experiment [1], B7 had a Kd of 3.31 nM, a koff of 0.00112 s⁻¹ and a kon of 339000 M⁻¹ s⁻¹. Moreover, in experiment [3], the “IC50 (read off the curve)” value is ~30 nM.

B8: D-Na-90 (antibody, V domains shown)
VH: QVQLVESGGGLVQAGGSLRLSCAASGLTFINYAMGWFRQAPGKEREFVAAISWAGGTTSYADSVKDRFSITRDSAKDTVYLQTNSLKPEDTAVYYCAANSRILSRTAKDYDYWGQGTQVTVSS
notes: as for B1
On to B8, for which, in experiment [1], the Kd amounted to 3.79 nM, the koff is 0.00176 s⁻¹ and the kon came out at 463000 M⁻¹ s⁻¹.

B9: D-Na-67 (antibody, V domains shown)
VH: QVQLVESGGGLVQAGGSLRLSCAASGGLTFINYAMGWFRQAPGKEREFVAAISRFGGTTSYADSVKDRFSITRDVAKDTVYLQTNSLKPEDTAVYYCAANSRILSRTAADYDYWGQGTQVTVSS
notes: as for B1
In experiment [1], B9 returned a Kd of 3.58 nM, a koff of 0.000334 s⁻¹ and a kon of 93300 M⁻¹ s⁻¹.

B10: D-Ye-22 (antibody, V domains shown)
VH: QVQLQESGGGLVQAGDSLRLSCIGSRRTFTMAWFRQAPGKEREFVAGIWGPADHTIYANSVKGRFACSRDDSTNTIFLQMNSLELEDTALYLCAAADSSGDDFEYWGQGTQVTVSS
notes: as for B1
Regarding B10, in experiment [1], the Kd came to 4.51 nM, the koff was 0.000825 s⁻¹ and the kon came to 183000 M⁻¹ s⁻¹. Also, in experiment [2], the “EC50 (read off the curve)” value was ~20 nM. The “IC50 (read off the curve)” value in experiment [3] was ~2 nM.

B11: D-Na-58 (antibody, V domains shown)
VH: QVQLVESGGGLVQAGGSLTLSCTASGRTFSSYAMAWFRQAPGKERELLVTISRSGSTTYYLDSVKGRFTISRDNAKNTVYLQMNSLKPEDTAVYYCAAKRSLQDEVYYWGQGTQVTVSS
notes: as for B1
Turning to B11, in experiment [1], the Kd was 0.486 nM, the koff was 0.000325 s⁻¹ and the kon stood at 668000 M⁻¹ s⁻¹. The “EC50 (read off the curve)” value in experiment [2] was ~50 nM. The “IC50 (read off the curve)” value in experiment [3] was ~9 nM.

B12: K-Yr-13&14-16 (antibody, V domains shown)
VH: EVQLVESGGGLVQAGGSLRLSCAASTRTFITYAMGWFRQAPGKEREFVASINWSGASTYYADSVKGRFTISRHNAKNTVYLQMNSLKPEDTAVYYCAAALSAVVVTQILDYDYWGQGTLVTVSS
notes: Anti-PD-L1 heavy chain antibody: VHH linked to human IgG1 (LALA) Fc; the junction is not described
Turning to B12, in experiment [4], the affinity, expressed as Kd, was 11 nM; the koff was 0.00606 s⁻¹; the kon came out at 553000 M⁻¹ s⁻¹.

B13: D-Ye-32 (antibody, V domains shown)
VH: QVQLQESGGGLVQAGGSLRLSCAASGSVGSINAMAWFRQAPGKQRDVVAHMPSGGSTHYADSVKGRFTVSRDNAKNTVYLQMNSLKAEDTAVYYCWAAGLGWGQGTQVTVSS
notes: as for B1
In experiment [1], B13 yielded a Kd of 5.69 nM, a koff of 0.00146 s⁻¹ and a kon of 256000 M⁻¹ s⁻¹. Besides, the “EC50 (read off the curve)” value in experiment [2] was ~70 nM.

B14: D-Ye-29 (antibody, V domains shown)
VH: QVQLQESGGGLVQPGGSLRLSCAASGSEFSFIPTGWYRQTPGKQRDLVAVFTSGGLTNYADSVKGRFTISRNNTKNIVYLQMNSLKPEDTAVYYCSGVPGPHYNGPTSGINYWGQGTQVTVSS
notes: as for B1
Consider B14, for which, in experiment [1], the Kd is 1.93 nM, the off-rate constant (koff) was 0.000376 s⁻¹ and the kon was found to be 195000 M⁻¹ s⁻¹. In experiment [5], this molecule came in with a Kd of 1.93 nM, a koff of 0.000376 s⁻¹ and a kon of 195000 M⁻¹ s⁻¹.

B15: HZ-D-Ye-29-3 (antibody, V domains shown)
VH: EVQLLESGGGLVQPGGSLRLSCAASGSEFSFIPTGWYRQAPGKQRELVAVFTSGGLTNYADSVKGRFTISRDNSKNTVYLQMNSLRAEDTAVYYCSGVPGPHYNGPTSGINYWGQGTQVTVSS
notes: Humanized anti-PD-L2 heavy chain antibody: VHH linked to human IgG1 (LALA) Fc; the junction is not described
In experiment [5], B15 had a Kd of 4.49 nM, a koff of 0.00173 s⁻¹ and a kon of 386000 M⁻¹ s⁻¹.

B16: K-Yr-13&14-09 (antibody, V domains shown)
VH: QVQLVESGGGLVKAGDSLRLSCAASGRTFTIYAIGWFRQAPGKEREFVATINWSGSMTNYTDSVKGRFTISRDNAKNTVYLQMNSLKPDDTAIYYCAAYVGATISTAHSRYDYWGQGTLVTVSA
notes: as for B12
On to B16, for which, in experiment [4], the Kd was 2.56 nM, the koff was 0.00137 s⁻¹ and the kon worked out at 535000 M⁻¹ s⁻¹.
